# Residue numbers refer to the chain shown, from its start. Names and notes keep the numbering of the source.
# B1: FtsA^M71A with Q155C (natural protein, E. coli, UniProt P0ABH0 1-420, looked up)
# chain: MIKATDRKLVVGLEIGTAKVAALVGEVLPDGMVNIIGVGSCPSRGMDKGGVNDLESVVKCVQRAIDQAELAADCQISSVYLALSGKHISCQNEIGMVPISEEEVTQEDVENVVHTAKSVRVRDEHRVLHVIPQEYAIDYQEGIKNPVGLSGVRMCAKVHLITCHNDMAKNIVKAVERCGLKVDQLIFAGLASSYSVLTEDERELGVCVVDIGGGTMDIAVYTGGALRHTKVIPYAGNVVTSDIAYAFGTPPSDAEAIKVRHGCALGSIVGKDESVEVPSVGGRPPRSLQRQTLAEVIEPRYTELLNLVNEEILQLQEKLRQQGVKHHLAAGIVLTGGAAQIEGLAACAQRVFHTQVRIGAPLNITGLTDYAQEPYYSTAVGLLHYGKESHLNGEAEVEKRVTASVGSWIKRLNSWLRKEF
# notes: FtsA, E. coli, M71A, measured by crosslinking at Q155C; M71A introduced into pWM7049 or pWM7239; source: E. coli, expressed from plasmid, in living cells
# B2: FLAG-FtsA^Q155C (natural protein, E. coli, UniProt P0ABH0 1-420, looked up)
# chain: B1 chain with A71M
# notes: FtsA, E. coli, with the cysteine substitution Q155C; made by site-directed mutagenesis on pWM2785 (pDSW210-FLAG-FtsA); Native FtsA is also present in some strains; also called pDSW210-FLAG-FtsA^Q155C; source: E. coli, expressed from plasmid pDSW210 (IPTG), in living cells; not shown: FLAG, N-terminal, kept
# How the values were obtained:
# [1] = target: the molecule itself; experiment: cross-linking; in vivo site-specific cysteine crosslinking in E. coli cells with BMB or BMH (0.5 mM, 10 min, cold PBS), quenched with beta-mercaptoethanol; SDS-PAGE and immunoblot with anti-FtsA; dividing cells: ftsZ84(ts) strains 10 and 20 min after return to 30 °C, ftsQ1ts and zipA1ts at 30 °C, ftsA° strain at 30 or 42 °C, WM4952 at 37 °C, WM4953
# [2] = target: the molecule itself; experiment: cross-linking; in vivo cysteine crosslinking in ftsQ1(ts) cells (WM7148) shifted to the nonpermissive 42 °C, compared with 30 °C; SDS-PAGE and anti-FtsA immunoblot
# [3] = target: the molecule itself; experiment: cross-linking; in vivo cysteine crosslinking in zipA1(ts) cells (WM7149) shifted to the nonpermissive 42 °C, compared with 30 °C; SDS-PAGE and anti-FtsA immunoblot
Protein,"DS filament crosslinking at Q155C, percent of WT levels [1] [%]",fold decrease of the crosslinked band's intensity at 42 °C against 30 °C [2] [fold],fold decrease of the crosslinked band's intensity at 42 °C against 30 °C [3] [fold]
B1,~35,–,–
B2,–,3,7.5
